Patent publication US8969060B2, “Modified glucose dehydrogenase” (Ikeda Food Research Co., Ltd., priority 2011, dated 2015)
Residue numbers refer to the chain shown, from its start. In names and notes the source's numbering stands.

B1: G352E: modified GLD: SEQ ID NO: 1 with substitution G352E (protein, listed as Aspergillus terreus)
chain: MLGKLSFLSALSLAVAAPLSNSTSAKYDYIVIGGGTSGLAVANRLSEDPNVNVLILEAGGSVWNNPNVTNVDGYGLAFGSDIDWQYQSVNQPYGGNLSQVLRAGKALGGTSTINGMAYTRAEDVQIDAWETIGNTGWTWKNLFPYYRKSENFTVPTKSQTSLGASYEAGAHGHEGPLDVAFTQIESNNLTTYLNRTFQGMGLPWTEDVNGGKMRGFNLYPSTVNLEEYVREDAARAYYWPYKSRPNLHVLLNTFANRIVWDGEAHDGHITASGVEITSRNGTVRVINAEKEVIVSAGALKSPAILELSGIGNPSVLDKHNIPVKVNLPTVGENLQDQVNSHMDASGNTSISETKAVSYPDVYDVFGDEAESVAKQIRANLKQYAADTAKANGNIMKAADLERLFEVQYDLIFKGRVPIAEVLNYPGSATSVFAEFWALLPFARGSVHIGSSNPAEFPVINPNYFMLDWDAKSYVAVAKYIRRSFESYPLSSIVKESTPGYDVIPRNASEQSWKEWVFDKNYRSNFHPVGTAAMMPREIGGVVDERLNVYGTTNVRVVDASVLPFQVCGHLVSTLYAVAERAADLIKADAGRR
modifications: SIGNAL (1)..(19)
B2: V338 + Q382H: modified GLD: SEQ ID NO: 1 with substitutions at V338 and Q382H (protein, listed as Aspergillus terreus)
chain: B1 chain with V338M, E352G, Q382H
modifications: SIGNAL (1)..(19)
B3: H341R + G499S: modified GLD: SEQ ID NO: 1 with substitutions H341R, G499S (protein, listed as Aspergillus terreus)
chain: B1 chain with H341R, E352G, G499S
modifications: SIGNAL (1)..(19)
B4: S272T + A298V + A369T: modified GLD: SEQ ID NO: 1 with substitutions S272T, A298V, A369T (protein, listed as Aspergillus terreus)
chain: B1 chain with S272T, A298V, E352G, A369T
modifications: SIGNAL (1)..(19)
B5: L250V + S340G + D399N: modified GLD: SEQ ID NO: 1 with substitutions L250V, S340G, D399N (protein, listed as Aspergillus terreus)
chain: B1 chain with L250V, S340G, E352G, D399N
modifications: SIGNAL (1)..(19)
B6: H341L: modified GLD: SEQ ID NO: 1 with substitution H341L (protein, listed as Aspergillus terreus)
chain: B1 chain with H341L, E352G
modifications: SIGNAL (1)..(19)
B7: H341K: modified GLD: SEQ ID NO: 1 with substitution H341K (protein, listed as Aspergillus terreus)
chain: B1 chain with H341K, E352G
modifications: SIGNAL (1)..(19)
B8: S340V: modified GLD: SEQ ID NO: 1 with substitution S340V (protein, listed as Aspergillus terreus)
chain: B1 chain with S340V, E352G
modifications: SIGNAL (1)..(19)
B9: H341P: modified GLD: SEQ ID NO: 1 with substitution H341P (protein, listed as Aspergillus terreus)
chain: B1 chain with H341P, E352G
modifications: SIGNAL (1)..(19)
B10: H341E: modified GLD: SEQ ID NO: 1 with substitution H341E (protein, listed as Aspergillus terreus)
chain: B1 chain with H341E, E352G
modifications: SIGNAL (1)..(19)
B11: H341F: modified GLD: SEQ ID NO: 1 with substitution H341F (protein, listed as Aspergillus terreus)
chain: B1 chain with H341F, E352G
modifications: SIGNAL (1)..(19)
B12: H341G: modified GLD: SEQ ID NO: 1 with substitution H341G (protein, listed as Aspergillus terreus)
chain: B1 chain with H341G, E352G
modifications: SIGNAL (1)..(19)
B13: S340N: modified GLD: SEQ ID NO: 1 with substitution S340N (protein, listed as Aspergillus terreus)
chain: B1 chain with S340N, E352G
modifications: SIGNAL (1)..(19)
B14: S340G: modified GLD: SEQ ID NO: 1 with substitution S340G (protein, listed as Aspergillus terreus)
chain: B1 chain with S340G, E352G
modifications: SIGNAL (1)..(19)
B15: H341M: modified GLD: SEQ ID NO: 1 with substitution H341M (protein, listed as Aspergillus terreus)
chain: B1 chain with H341M, E352G
modifications: SIGNAL (1)..(19)
B16: H341N: modified GLD: SEQ ID NO: 1 with substitution H341N (protein, listed as Aspergillus terreus)
chain: B1 chain with H341N, E352G
modifications: SIGNAL (1)..(19)
B17: H341C: modified GLD: SEQ ID NO: 1 with substitution H341C (protein, listed as Aspergillus terreus)
chain: B1 chain with H341C, E352G
modifications: SIGNAL (1)..(19)
B18: H341I: modified GLD: SEQ ID NO: 1 with substitution H341I (protein, listed as Aspergillus terreus)
chain: B1 chain with H341I, E352G
modifications: SIGNAL (1)..(19)
B19: H341Q: modified GLD: SEQ ID NO: 1 with substitution H341Q (protein, listed as Aspergillus terreus)
chain: B1 chain with H341Q, E352G
modifications: SIGNAL (1)..(19)
B20: S340W: modified GLD: SEQ ID NO: 1 with substitution S340W (protein, listed as Aspergillus terreus)
chain: B1 chain with S340W, E352G
modifications: SIGNAL (1)..(19)
B21: H341A: modified GLD: SEQ ID NO: 1 with substitution H341A (protein, listed as Aspergillus terreus)
chain: B1 chain with H341A, E352G
modifications: SIGNAL (1)..(19)
B22: H341D: modified GLD: SEQ ID NO: 1 with substitution H341D (protein, listed as Aspergillus terreus)
chain: B1 chain with H341D, E352G
modifications: SIGNAL (1)..(19)

Assay: Relative enzymatic activity of GLD (DCIP/1-m-PMS, plate reader, yeast culture supernatant) with 1,10-phenanthroline present
Type: biochemical
Details: random-mutation mutants, sample value with inhibitor at 1 mM / blank value, inhibitor not named in Table 1
Description: (§1) The susceptibility defined in the present specification is evaluated in terms of a relative activity that is determined in a system wherein the inhibitor coexists or not. The relative activity is derived from a relative value (%) of an enzymatic activity (a sample value) obtained with the addition of the inhibitor in the determination of the enzymatic activity described in the present specification as compared with an enzymatic activity (a blank value) as “100%” obtained without the addition of the inhibitor in the same determination. Thus, the higher the relative activity is, the less the susceptibility to the inhibitor is (or the more the susceptibility to the inhibitor is reduced), vice versa.
(§2) The enzymatic activity is determined in the following manner in Examples 3 and 6 wherein a plate reader (Japan Molecular Device Corporation, SpectraMax Plus384) is used. Thus, culture supernatant that had been diluted in advance with an appropriate magnification is added to a 96-well microplate with an amount of 100 μl per well. A reagent for the determination of the enzymatic activity comprising phosphate buffer (pH 7.0), 1.0 M D-glucose, 3 mM DCIP, 3 mM 1-m-PMS and methanol with a volume ratio of 0.1:1:0.14:0.2:0.06 is added to the 96-well microplate with an amount of 100 μl per well, and a change in the absorbance of DCIP at 600 nm (ΔABS/min) is then determined. The enzymatic activity can be calculated by conversion in proportion to a change in the absorbance of an enzyme solution for which the enzymatic activity has already been known by the above-mentioned activity determination procedure using the spectrophotometer.
(§3) In the following examples, a value of the enzymatic activity determined by the spectrometer or plate reader using the above reagent composition is considered as a blank value. On the other hand, a sample value is determined using a methanol solution comprising the inhibitor such as 1,10-phenanthroline or proflavin hydrochloride at a final concentration of 1 mM instead of the methanol. Enzymatic activity (unit/mL)=(−ΔABS/16.3)×3.0/0.05×(Dilution ratio of enzyme) [Equation 1]
Into each well of a 96-well microplate (manufactured by Nunc, Inc.), a YPD medium containing 125 μL of 1.0% (w/v) yeast extract (manufactured by BD), 2.0% (w/v) tryptone (manufactured by BD), 2.0% (w/v) glucose (manufactured by Wako Pure Chemical Industries, Ltd.) was dispensed, and the transformant colonies obtained in Example 2 were inoculated thereinto one by one.
After shaking culture at 30° C. and 1,000 rpm for 24 hours, the culture mixture was centrifuged and the supernatant was collected.
According to the above-mentioned method for the determination of enzymatic activity, a blank value and a sample value were determined using a plate reader, and the relative activity (%) was obtained by dividing the sample value by the blank value.
With B1 the “Relative Activity” value was 70.4%.
In the case of B2, the “Relative Activity” value is reported as 60.0%.
In the case of B3, the “Relative Activity” value is reported as 71.9%.
In the case of B4, the “Relative Activity” value is reported as 68.6%.
In the case of B5, the “Relative Activity” value is reported as 43.4%.
With B6 the “Relative Activity” value was 69.7%.

Same assay, conditions: site-specific mutants, inhibitor final concentration 1 mM
For B1, the “Relative Activity [%] 1,10-Phenanthroline” value was 91.7%.
With B7 the “Relative Activity [%] 1,10-Phenanthroline” value was 99.2%.
With B8 the “Relative Activity [%] 1,10-Phenanthroline” value was 84.2%.
With B9 the “Relative Activity [%] 1,10-Phenanthroline” value was 88.3%.
In the case of B10, the “Relative Activity [%] 1,10-Phenanthroline” value is reported as 88.4%.
With B11 the “Relative Activity [%] 1,10-Phenanthroline” value was 97.1%.
For B12, the “Relative Activity [%] 1,10-Phenanthroline” value was 93.8%.
For B13, the “Relative Activity [%] 1,10-Phenanthroline” value was 82.0%.
In the case of B14, the “Relative Activity [%] 1,10-Phenanthroline” value is reported as 54.6%.
For B15, the “Relative Activity [%] 1,10-Phenanthroline” value was 95.4%.
For B16, the “Relative Activity [%] 1,10-Phenanthroline” value was 93.3%.
For B17, the “Relative Activity [%] 1,10-Phenanthroline” value was 95.4%.
In the case of B18, the “Relative Activity [%] 1,10-Phenanthroline” value is reported as 97.4%.
In the case of B19, the “Relative Activity [%] 1,10-Phenanthroline” value is reported as 97.5%.
With B6 the “Relative Activity [%] 1,10-Phenanthroline” value was 92.2%.
For B20, the “Relative Activity [%] 1,10-Phenanthroline” value was 97.7%.
With B21 the “Relative Activity [%] 1,10-Phenanthroline” value was 95.1%.
In the case of B22, the “Relative Activity [%] 1,10-Phenanthroline” value is reported as 90.0%.

Assay: Relative enzymatic activity of GLD (DCIP/1-m-PMS, plate reader, yeast culture supernatant) with proflavin hydrochloride present
Type: biochemical
Details: site-specific mutants, inhibitor final concentration 1 mM
Description: as §1, §2, §3
For B1, the “Relative Activity [%] Proflavin hydrochloride” value was 36.3%.
For B7, the “Relative Activity [%] Proflavin hydrochloride” value was 61.3%.
For B8, the “Relative Activity [%] Proflavin hydrochloride” value was 54.9%.
In the case of B9, the “Relative Activity [%] Proflavin hydrochloride” value is reported as 43.2%.
For B10, the “Relative Activity [%] Proflavin hydrochloride” value was 25.2%.
In the case of B11, the “Relative Activity [%] Proflavin hydrochloride” value is reported as 67.5%.
For B12, the “Relative Activity [%] Proflavin hydrochloride” value was 76.9%.
For B13, the “Relative Activity [%] Proflavin hydrochloride” value was 49.9%.
With B14 the “Relative Activity [%] Proflavin hydrochloride” value was 49.5%.
For B15, the “Relative Activity [%] Proflavin hydrochloride” value was 71.4%.
For B16, the “Relative Activity [%] Proflavin hydrochloride” value was 81.5%.
In the case of B17, the “Relative Activity [%] Proflavin hydrochloride” value is reported as 67.7%.
In the case of B18, the “Relative Activity [%] Proflavin hydrochloride” value is reported as 64.4%.
With B19 the “Relative Activity [%] Proflavin hydrochloride” value was 68.1%.
In the case of B6, the “Relative Activity [%] Proflavin hydrochloride” value is reported as 66.9%.
For B20, the “Relative Activity [%] Proflavin hydrochloride” value was 75.7%.
For B21, the “Relative Activity [%] Proflavin hydrochloride” value was 75.8%.
For B22, the “Relative Activity [%] Proflavin hydrochloride” value was 64.5%.
